{"source": "paper PMC5104429", "about": "(2016)", "parents": {"B1": {"name": "Flag-tagged wild type LRRK2 (leucine-rich repeat kinase 2) [human] / Full length V5-tagged FADD [not stated] (parent complex)", "chain 1": "MASGSCQGCEEDEETLKKLIVRLNNVQEGKQIETLVQILEDLLVFTYSERASKLFQGKNIHVPLLIVLDSYMRVASVQQVGWSLLCKLIEVCPGTMQSLMGPQDVGNDWEVLGVHQLILKMLTVHNASVNLSVIGLKTLDLLLTSGKITLLILDEESDIFMLIFDAMHSFPANDEVQKLGCKALHVLFERVSEEQLTEFVENKDYMILLSALTNFKDEEEIVLHVLHCLHSLAIPCNNVEVLMSGNVRCYNIVVEAMKAFPMSERIQEVSCCLLHRLTLGNFFNILVLNEVHEFVVKAVQQYPENAALQISALSCLALLTETIFLNQDLEEKNENQENDDEGEEDKLFWLEACYKALTWHRKNKHVQEAACWALNNLLMYQNSLHEKIGDEDGHFPAHREVMLSMLMHSSSKEVFQASANALSTLLEQNVNFRKILLSKGIHLNVLELMQKHIHSPEVAESGCKMLNHLFEGSNTSLDIMAAVVPKILTVMKRHETSLPVQLEALRAILHFIVPGMPEESREDTEFHHKLNMVKKQCFKNDIHKLVLAALNRFIGNPGIQKCGLKVISSIVHFPDALEMLSLEGAMDSVLHTLQMYPDDQEIQCLGLSLIGYLITKKNVFIGTGHLLAKILVSSLYRFKDVAEIQTKGFQTILAILKLSASFSKLLVHHSFDLVIFHQMSSNIMEQKDQQFLNLCCKCFAKVAMDDYLKNVMLERACDQNNSIMVECLLLLGADANQAKEGSSLICQVCEKESSPKLVELLLNSGSREQDVRKALTISIGKGDSQIISLLLRRLALDVANNSICLGGFCIGKVEPSWLGPLFPDKTSNLRKQTNIASTLARMVIRYQMKSAVEEGTASGSDGNFSEDVLSKFDEWTFIPDSSMDSVFAQSDDLDSEGSEGSFLVKKKSNSISVGEFYRDAVLQRCSPNLQRHSNSLGPIFDHEDLLKRKRKILSSDDSLRSSKLQSHMRHSDSISSLASEREYITSLDLSANELRDIDALSQKCCISVHLEHLEKLELHQNALTSFPQQLCETLKSLTHLDLHSNKFTSFPSYLLKMSCIANLDVSRNDIGPSVVLDPTVKCPTLKQFNLSYNQLSFVPENLTDVVEKLEQLILEGNKISGICSPLRLKELKILNLSKNHISSLSENFLEACPKVESFSARMNFLAAMPFLPPSMTILKLSQNKFSCIPEAILNLPHLRSLDMSSNDIQYLPGPAHWKSLNLRELLFSHNQISILDLSEKAYLWSRVEKLHLSHNKLKEIPPEIGCLENLTSLDVSYNLELRSFPNEMGKLSKIWDLPLDELHLNFDFKHIGCKAKDIIRFLQQRLKKAVPYNRMKLMIVGNTGSGKTTLLQQLMKTKKSDLGMQSATVGIDVKDWPIQIRDKRKRDLVLNVWDFAGREEFYSTHPHFMTQRALYLAVYDLSKGQAEVDAMKPWLFNIKARASSSPVILVGTHLDVSDEKQRKACMSKITKELLNKRGFPAIRDYHFVNATEESDALAKLRKTIINESLNFKIRDQLVVGQLIPDCYVELEKIILSERKNVPIEFPVIDRKRLLQLVRENQLQLDENELPHAVHFLNESGVLLHFQDPALQLSDLYFVEPKWLCKIMAQILTVKVEGCPKHPKGIISRRDVEKFLSKKRKFPKNYMSQYFKLLEKFQIALPIGEEYLLVPSSLSDHRPVIELPHCENSEIIIRLYEMPYFPMGFWSRLINRLLEISPYMLSGRERALRPNRMYWRQGIYLNWSPEAYCLVGSEVLDNHPESFLKITVPSCRKGCILLGQVVDHIDSLMEEWFPGLLEIDICGEGETLLKKWALYSFNDGEEHQKILLDDLMKKAEEGDLLVNPDQPRLTIPISQIAPDLILADLPRNIMLNNDELEFEQAPEFLLGDGSFGSVYRAAYEGEEVAVKIFNKHTSLRLLRQELVVLCHLHHPSLISLLAAGIRPRMLVMELASKGSLDRLLQQDKASLTRTLQHRIALHVADGLRYLHSAMIIYRDLKPHNVLLFTLYPNAAIIAKIADYGIAQYCCRMGIKTSEGTPGFRAPEVARGNVIYNQQADVYSFGLLLYDILTTGGRIVEGLKFPNEFDELEIQGKLPDPVKEYGCAPWPMVEKLIKQCLKENPQERPTSAQVFDILNSAELVCLTRRILLPKNVIVECMVATHHNSRNASIWLGCGHTDRGQLSFLDLNTEGYTSEEVADSRILCLALVHLPVEKESWIVSGTQSGTLLVINTEDGKKRHTLEKMTDSVTCLYCNSFSKQSKQKNFLLVGTADGKLAIFEDKTVKLKGAAPLKILNIGNVSTPLMCLSESTNSTERNVMWGGCGTKIFSFSNDFTIQKLIETRTSQLFSYAAFSDSNIITVVVDTALYIAKQNSPVVEVWDKKTEKLCGLIDCVHFLREVMVKENKESKHKMSYSGRVKTLCLQKNTALWIGTGGGHILLLDLSTRRLIRVIYNFCNSVRVMMTAQLGSLKNVMLVLGYNRKNTEGTQKQKEIQSCLTVWDINLPHEVQNLEKHIEVRKELAEKMRRTSVE", "chain 2": "MDPFLVLLHSVSSSLSSSELTELKFLCLGRVGKRKLERVQSGLDLFSMLLEQNDLEPGHTELLRELLASLRRHDLLRRVDDFEAGAAAGAAPGEEDLCAAFNVICDNVGKDWRRLARQLKVSDTKIDSIEDRYPRNLTERVRESLRIWKNTEKENATVAHLVGALRSCQMNLVADLVQEVQQARDLQNRSGAMSPMSWNSDASTSEAS"}}}
{"variants_of": "B1", "test": "ELISA (anti-Flag capture, anti-V5 detection); 15 μg of cell extract loaded in each well; parent: 0.61; read off a plot", "units": {"response": "anti-V5/Total LRRK2"}}
{"variant": "chain 1 G2019S", "response": "~1.2"}
{"variant": "chain 1 I2020T", "response": "~0.77"}
{"variant": "chain 1 R1441C", "response": "~0.75"}
{"variant": "chain 1 K544E", "response": "~1.2"}
{"variant": "chain 1 T1410M", "response": "~1.7"}
{"variant": "chain 1 A211V", "response": "~0.91"}
{"variants_of": "B1", "test": "co-immunoprecipitation (M2-Flag resin), quantified Western blot band intensity; HEK293T cells; Flag-LRRK2 and V5-FADD at a ratio of 4:1; three independent experiments; parent: 1; read off a plot"}
{"variant": "chain 1 G2019S", "response": "~1.3 norm. to Flag IP"}
{"variant": "chain 1 I2020T", "response": "~1.6 norm. to Flag IP"}
{"variant": "chain 1 R1441C", "response": "~1.1 norm. to Flag IP"}
{"variant": "chain 1 K544E", "response": "~1 norm. to Flag IP"}
{"variant": "chain 1 T1410M", "response": "~2 norm. to Flag IP"}
{"variant": "chain 1 A211V", "response": "~1.7 norm. to Flag IP"}
